# T1: hMMP-7 (Homo sapiens, UniProt P09237 P09237:95-267)
# T1 sequence: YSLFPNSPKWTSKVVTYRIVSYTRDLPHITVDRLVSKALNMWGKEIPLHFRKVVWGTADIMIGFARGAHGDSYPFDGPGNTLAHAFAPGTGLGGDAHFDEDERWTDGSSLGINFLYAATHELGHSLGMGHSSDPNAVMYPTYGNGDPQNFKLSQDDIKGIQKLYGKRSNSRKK
# T2: pro-hMMP-7 (Homo sapiens, UniProt P09237 P09237:18-267)
# T2 sequence: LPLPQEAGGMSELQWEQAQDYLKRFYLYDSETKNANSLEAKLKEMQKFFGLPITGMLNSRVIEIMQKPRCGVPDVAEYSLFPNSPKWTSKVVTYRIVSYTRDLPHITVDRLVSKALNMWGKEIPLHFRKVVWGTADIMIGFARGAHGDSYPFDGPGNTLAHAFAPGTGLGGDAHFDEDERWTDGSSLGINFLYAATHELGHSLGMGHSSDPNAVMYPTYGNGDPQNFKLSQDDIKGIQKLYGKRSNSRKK
# Columns and labels:
# [1] = target: T3, hMMP-9 (gelatinase B) (Homo sapiens, UniProt P14780 P14780:107-707); experiment: filter; SP buffer (5 mM CaCl2, 1 mM Mg acetate), 23 C; conditions: tags: Calbiochem; label: 32P 5' end; imperfect hairpin
# Description: The dissociation constant (Kd) of the complexes, formed by the aptamers and the hMMP-9 protein, was determined using the filter retention method. 1 nM of ³²P 5′end-labeled aptamer was incubated with increasing concentrations of hMMP-9 (10, 20, 40, 72, 160, 320, 500 nM) for 20 min at 23° C. in 20 μl SP buffer. Complexes were filtered and the radioactivity retained on the filter was quantified using a scintillation counter (LS 6000 IC, Beckman). Kd values were deduced from data point fitting with Kaleidagraph 3.0 (Abelbeck software), according to the equation: B=(Bmax[L]₀)/([…]), where B is the proportion of complex, Bmax is the maximum of complex formed and [L]₀ is the total concentration of unlabeled ligand.
# [2] = target: T1, hMMP-7; experiment: filter; no retention; conditions: label: 32P 5' end; imperfect hairpin
# [3] = target: T2, pro-hMMP-7; experiment: filter; no retention; conditions: label: 32P 5' end; imperfect hairpin
# [4] = target: T1, hMMP-7; experiment: SPR; 50 nM protein, PBS; conditions: label: 3' biotin; hairpin
# Description: (§1) Surface Plasmon Resonance (SPR) experiments were performed on a BIAcore™ 3000 apparatus (Biacore AB, Sweden). 2 μg of hMMP-9 protein were injected on a carboxymethylated dextran CM5 sensorchip for immobilisation and aptamers F3B, F3C1 and F3C2 were injected at 200 nM (20 μl/min) in SP buffer. Alternatively CM5 sensorchips were functionalized with streptavidin. 3′ end biotinylated F3B and F3Bomf were immobilised on the functionalized CM5 and hMMP-9 protein at 100 nM in SP buffer was injected. hMMP-9 was injected at different concentrations (from 5 to 160 nM) in PBS buffer. In another series of experiments 3′end biotinylated aptamer F3Bomf was immobilized and hMMP-9, pro-hMMP-9, mouse pro-MMP-9, human MMP-2 or MMP-7 proteins were injected at 50 nM in PBS buffer. SPR experiments were performed at 23° C., at 20 μl/min, and the complexes were dissociated with a pulse of a solution containing 40% formamide/3.6 M urea/30 mM EDTA (42).
# [5] = target: hMMP-2 (gelatinase A) (Homo sapiens, UniProt P08253 P08253:110-660); experiment: SPR; 50 nM protein, PBS; conditions: label: 3' biotin; hairpin
# Description: as §1
# [6] = target: T3, hMMP-9 (gelatinase B); experiment: SPR; no detectable signal; conditions: tags: Calbiochem
# Description: as §1
# Next we optimized the F3B chemistry in the perspective of its use in biological media. […] However the equilibrium constant was evaluated to be in the low nanomolar range. […] In contrast, F3Bomf was able to discriminate between the human and the murine zymogen pro-MMP-9: a weak signal (49 RU) to the mouse pro-MMP-9 was detected, compared to about 1 300 RU with the human proenzyme.
# T3 sequence (P14780 107-707, one chain of several): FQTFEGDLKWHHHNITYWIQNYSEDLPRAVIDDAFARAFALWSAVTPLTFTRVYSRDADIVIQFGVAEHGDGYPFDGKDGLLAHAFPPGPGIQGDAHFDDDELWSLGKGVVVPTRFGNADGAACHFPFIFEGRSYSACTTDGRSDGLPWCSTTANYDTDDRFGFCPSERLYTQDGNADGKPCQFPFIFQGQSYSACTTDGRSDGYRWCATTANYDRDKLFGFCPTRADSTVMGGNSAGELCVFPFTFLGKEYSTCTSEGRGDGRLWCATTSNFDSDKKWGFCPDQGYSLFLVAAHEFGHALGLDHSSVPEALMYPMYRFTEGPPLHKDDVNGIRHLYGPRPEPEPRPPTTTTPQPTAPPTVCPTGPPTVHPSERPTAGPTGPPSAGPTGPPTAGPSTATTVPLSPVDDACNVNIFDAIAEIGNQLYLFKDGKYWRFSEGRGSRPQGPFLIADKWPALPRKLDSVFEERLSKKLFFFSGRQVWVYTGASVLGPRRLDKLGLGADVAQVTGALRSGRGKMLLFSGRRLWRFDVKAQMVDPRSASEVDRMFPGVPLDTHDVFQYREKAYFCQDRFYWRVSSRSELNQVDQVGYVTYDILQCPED
# hMMP-2 (gelatinase A), sequence (P08253 110-660, one chain of several): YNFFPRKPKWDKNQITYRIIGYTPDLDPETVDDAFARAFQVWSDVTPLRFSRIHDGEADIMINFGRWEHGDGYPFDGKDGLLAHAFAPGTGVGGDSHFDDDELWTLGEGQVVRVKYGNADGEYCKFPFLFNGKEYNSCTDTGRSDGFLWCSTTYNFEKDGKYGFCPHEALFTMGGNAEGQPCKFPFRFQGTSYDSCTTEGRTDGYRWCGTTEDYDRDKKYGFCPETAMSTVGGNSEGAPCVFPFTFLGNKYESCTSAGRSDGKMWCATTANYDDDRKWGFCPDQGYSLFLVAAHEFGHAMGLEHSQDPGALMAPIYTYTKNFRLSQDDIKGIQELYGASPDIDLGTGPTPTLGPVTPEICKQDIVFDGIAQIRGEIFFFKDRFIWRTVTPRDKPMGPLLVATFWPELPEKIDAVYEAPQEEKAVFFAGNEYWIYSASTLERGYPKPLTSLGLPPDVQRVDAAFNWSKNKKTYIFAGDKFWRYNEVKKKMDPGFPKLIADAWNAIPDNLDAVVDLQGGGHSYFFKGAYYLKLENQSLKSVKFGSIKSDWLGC
binder,measurement,setting,value
"F3 (ssRNA, 2'-F pyrimidines, 2'-OH purines) RNA: GGUUACCAGCCUUCACUGCCCUGCCCUCACCCGUUAGCCUGAGCGCCCCGCACCACGGUCGGUCACAC",Kd,[1],8.1 nM
same,binding result,[2],no binding
same,binding result,[3],no binding
"UGCCCUGCCCUCACCCGUUAGCCUGAGCGCCCCGCA (XNA, 2'-F pyrimidines, 2'-OMe purines) [F3Bomf]",binding result,[4],no binding
same,binding result,[5],no binding
"UGCCAAACGCGUCCCCUUUGCCCGGCCUCCGCCGCA (XNA, 2'-F pyrimidines, 2'-OMe purines) [control scrambled sequence]",binding result,[6],no binding

# From patent US20150337308, “MATRIX METALLOPROTEINASE 9 (MMP-9) APTAMER AND USES THEREOF” (CHU DE BORDEAUX, published 2015)
